Test results: patent US20160168251A1 (MorphoSys, published 2016)

T1: rat NPRA on HEK cells bound to ANP (rat, UniProt P18910 29-1057; P01161 123-150)
T1 sequence (looked up): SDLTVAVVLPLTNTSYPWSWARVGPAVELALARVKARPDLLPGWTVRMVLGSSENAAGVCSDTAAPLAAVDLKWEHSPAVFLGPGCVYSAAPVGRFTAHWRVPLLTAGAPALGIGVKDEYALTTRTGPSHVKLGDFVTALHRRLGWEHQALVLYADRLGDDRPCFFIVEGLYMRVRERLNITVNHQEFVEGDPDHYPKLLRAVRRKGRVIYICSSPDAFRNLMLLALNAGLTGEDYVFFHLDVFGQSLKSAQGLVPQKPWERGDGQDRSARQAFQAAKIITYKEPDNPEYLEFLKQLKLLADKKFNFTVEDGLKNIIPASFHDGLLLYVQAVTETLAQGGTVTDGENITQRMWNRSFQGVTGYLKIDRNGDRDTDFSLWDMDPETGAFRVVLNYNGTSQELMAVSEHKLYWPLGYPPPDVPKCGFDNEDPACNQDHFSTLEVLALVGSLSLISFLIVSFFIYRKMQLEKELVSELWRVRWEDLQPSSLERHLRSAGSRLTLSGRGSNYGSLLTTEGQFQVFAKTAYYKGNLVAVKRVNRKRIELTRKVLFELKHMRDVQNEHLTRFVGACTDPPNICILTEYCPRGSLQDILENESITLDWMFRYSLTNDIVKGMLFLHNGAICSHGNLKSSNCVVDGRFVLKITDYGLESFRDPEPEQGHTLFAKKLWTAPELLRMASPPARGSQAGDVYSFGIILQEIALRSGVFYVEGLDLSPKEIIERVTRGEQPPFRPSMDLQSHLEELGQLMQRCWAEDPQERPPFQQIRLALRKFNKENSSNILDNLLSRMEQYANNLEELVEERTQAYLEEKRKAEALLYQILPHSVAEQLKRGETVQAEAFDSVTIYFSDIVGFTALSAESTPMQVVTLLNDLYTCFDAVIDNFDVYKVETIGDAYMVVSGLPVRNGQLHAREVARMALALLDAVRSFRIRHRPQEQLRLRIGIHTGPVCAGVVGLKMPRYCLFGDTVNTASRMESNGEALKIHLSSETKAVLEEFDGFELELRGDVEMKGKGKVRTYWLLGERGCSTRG
T1 sequence (peptide, looked up): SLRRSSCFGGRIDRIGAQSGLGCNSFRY

T2: rhesus monkey NPRA on HEK cells bound to ANP (rhesus monkey, UniProt F7HE88 33-1061; P01160 124-151, chain 2: ANP is cyclic, its 17-residue ring closed by a disulfide bond between its two cysteines)
T2 construct: also called Rhesus NPRA
T2 sequence: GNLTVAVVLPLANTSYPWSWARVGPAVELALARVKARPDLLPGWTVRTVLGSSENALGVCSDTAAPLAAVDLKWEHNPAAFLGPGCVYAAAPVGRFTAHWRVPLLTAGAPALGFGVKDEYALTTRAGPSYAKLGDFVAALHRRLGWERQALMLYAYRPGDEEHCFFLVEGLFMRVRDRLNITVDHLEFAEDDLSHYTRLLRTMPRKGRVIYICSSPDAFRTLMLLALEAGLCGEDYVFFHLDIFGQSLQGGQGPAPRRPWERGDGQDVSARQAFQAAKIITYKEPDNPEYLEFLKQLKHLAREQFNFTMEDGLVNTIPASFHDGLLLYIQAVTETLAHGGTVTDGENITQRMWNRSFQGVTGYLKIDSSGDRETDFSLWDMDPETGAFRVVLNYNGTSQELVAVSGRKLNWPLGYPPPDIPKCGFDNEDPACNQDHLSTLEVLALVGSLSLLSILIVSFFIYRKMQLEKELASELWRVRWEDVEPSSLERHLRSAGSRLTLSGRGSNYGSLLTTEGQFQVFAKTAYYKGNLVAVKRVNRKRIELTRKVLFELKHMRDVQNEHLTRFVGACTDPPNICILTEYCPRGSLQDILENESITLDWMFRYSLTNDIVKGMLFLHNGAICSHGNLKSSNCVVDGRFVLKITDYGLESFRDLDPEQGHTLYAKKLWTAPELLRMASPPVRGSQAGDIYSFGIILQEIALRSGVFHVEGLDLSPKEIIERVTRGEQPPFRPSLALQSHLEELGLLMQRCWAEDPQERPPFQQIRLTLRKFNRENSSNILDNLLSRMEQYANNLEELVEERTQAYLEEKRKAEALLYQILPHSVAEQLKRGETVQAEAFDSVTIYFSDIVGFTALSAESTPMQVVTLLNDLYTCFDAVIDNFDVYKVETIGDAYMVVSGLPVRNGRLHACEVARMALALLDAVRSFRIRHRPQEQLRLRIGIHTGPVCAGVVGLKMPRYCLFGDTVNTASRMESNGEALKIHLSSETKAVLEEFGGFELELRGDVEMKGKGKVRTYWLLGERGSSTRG
T2 sequence (peptide): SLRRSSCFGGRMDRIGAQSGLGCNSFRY


How the values were obtained:
[1] = biological target: T3, human NPRB on HEK293 cells in the presence of CNP (human, UniProt P20594 23-1047; P23582 105-126); experiment: FACS, HEK NPRB cells with 100 nM CNP
T3 construct: whole, on cells;mature; also called HEK NPRB cells + 100 nM CNP
T3 sequence (P20594 23-1047 limits assumed, chain 1 of 2): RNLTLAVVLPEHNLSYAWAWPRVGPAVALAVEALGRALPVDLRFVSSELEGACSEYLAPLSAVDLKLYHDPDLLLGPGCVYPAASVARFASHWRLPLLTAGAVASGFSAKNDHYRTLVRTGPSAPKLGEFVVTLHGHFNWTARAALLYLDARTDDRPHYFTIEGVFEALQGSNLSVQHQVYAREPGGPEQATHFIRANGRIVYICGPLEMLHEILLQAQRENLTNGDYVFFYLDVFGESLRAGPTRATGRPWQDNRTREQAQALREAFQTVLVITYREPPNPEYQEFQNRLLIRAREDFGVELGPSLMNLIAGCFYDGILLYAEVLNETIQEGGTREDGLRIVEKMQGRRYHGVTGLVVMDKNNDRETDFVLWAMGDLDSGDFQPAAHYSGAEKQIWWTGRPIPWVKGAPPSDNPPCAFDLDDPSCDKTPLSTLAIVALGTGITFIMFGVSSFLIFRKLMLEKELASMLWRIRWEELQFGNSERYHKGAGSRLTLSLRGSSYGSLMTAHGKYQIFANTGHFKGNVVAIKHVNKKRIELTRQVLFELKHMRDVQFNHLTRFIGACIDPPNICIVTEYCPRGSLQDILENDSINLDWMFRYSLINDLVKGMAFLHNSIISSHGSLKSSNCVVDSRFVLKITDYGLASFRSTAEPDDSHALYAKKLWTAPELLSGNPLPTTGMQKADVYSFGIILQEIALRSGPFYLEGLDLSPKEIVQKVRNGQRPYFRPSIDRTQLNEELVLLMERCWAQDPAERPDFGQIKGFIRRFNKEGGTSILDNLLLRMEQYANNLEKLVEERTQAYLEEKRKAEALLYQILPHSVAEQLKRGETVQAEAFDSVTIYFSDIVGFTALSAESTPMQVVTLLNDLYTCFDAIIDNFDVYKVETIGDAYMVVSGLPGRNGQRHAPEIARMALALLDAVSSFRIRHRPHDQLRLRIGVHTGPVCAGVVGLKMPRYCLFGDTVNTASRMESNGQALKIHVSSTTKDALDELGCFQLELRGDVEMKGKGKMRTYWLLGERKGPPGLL
T3 sequence (P23582 105-126 limits assumed, chain 2 of 2): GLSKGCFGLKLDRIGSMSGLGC
Method: HEK NPRA cells are detached with Accutase (PAA Laboratories GmbH, Cat. No. L11-007, Austria), harvested by centrifugation (900 rpm, 4 minutes) and resuspended in FACS buffer (PBS/3% FCS/0.02% NaN3) to a final concentration of 10⁶ cells/ml. 100 μl of the cell suspension is transferred to each well of a 96 round bottom plate (TC Microwell 96U, Nunc). […] Cells are washed in 150 μl of FACS buffer, pelleted and resuspended in 50 μl of the solution containing the primary antibody comprising a BEL extract of Fabs, a diluted BEL extract or purified antibody diluted in FACS buffer and incubated on ice for 30 min. Cells are washed again in FACS buffer and resuspended in 50 μl of FACS buffer containing the secondary antibody (R-Phycoerythrin-conjugated Affipure F(ab′)₂ Fragment Goat Anti-Human IgG, Dianova) and incubated on ice for 45 min. Cells are washed twice with FACS buffer and resuspended in 200 μl of FACS buffer for analysis in the FACS Array (BD Biosciences).

[2] = biological target: T1, rat NPRA on HEK cells bound to ANP; experiment: cell-based or functional assay
[3] = biological target: T1, rat NPRA on HEK cells bound to ANP; experiment: KinExA whole cell binding (Kd,app), HEK cells with rat NPRA, ANP bound
[4] = biological target: T2, rhesus monkey NPRA on HEK cells bound …; experiment: KinExA whole cell binding (Kd,app), HEK cells with rhesus NPRA, ANP bound
Method: Initial species cross-reactivity studies are performed using HEK cell lines overexpressing rat, canine and rhesus monkey NPRA. […] These apparent Kd values are obtained by globally fitting the data for two antibody concentrations.

Row | Binder | binding result [1] | Fold shift in EC50 of ANP (cGMP), HEK cells with rat NPRA [2] | Kd [3] | Kd [4]
1 | 5502 IgG4_Pro (antibody, V domains shown, Human IgG4_Pro) VH: QVQLQQSGPGLVKPSQTLSLTCAISGDSVSSRSASWSWIRQSPGRGLEWLGRIYYRSKWYNDYAVSVKSRITINPDTSKNQFSLQLNSVTPEDTAVYYCARMDVPSFRYFDVWGQGTLVTVSS VL: not shown | no binding (tested: 20 nM) | – | – | –
2 | 5591 IgG4_Pro (antibody, V domains shown) VH: QVQLQQSGPGLVKPSQTLSLTCAISGDSVSSRSASWSWIRQSPGRGLEWLGRTYYRSHWYYEYAQSVKSRITINPDTSKNQFSLQLNSVTPEDTAVYYCARMDVPSFRYFDVWGQGTLVTVSS VL: not shown | – | 3 fold | 0.013 nM | 0.266 nM
